The target of the assay is T1, CD79b (UniProt P40259 29-229, limits assumed).
T1 construct: whole, on cells; Endogenous CD79b on human lymphoma cell lines
T1 sequence (looked up): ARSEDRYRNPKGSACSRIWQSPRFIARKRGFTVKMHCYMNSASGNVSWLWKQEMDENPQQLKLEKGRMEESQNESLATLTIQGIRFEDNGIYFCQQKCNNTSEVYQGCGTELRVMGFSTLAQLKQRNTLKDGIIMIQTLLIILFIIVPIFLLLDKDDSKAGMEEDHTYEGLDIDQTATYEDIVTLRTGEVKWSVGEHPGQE
The assay is described as follows: flow cytometry on NHL cell lines Ramos and Daudi.

Where a chain is given by its changes, count along the chain named.

B1: CARLY1 monoclonal murine antibody against CD79b (antibody, V domains shown)
VH: QVQLQQPGAELVRPGASVKLSCKASGYTFTSYWMNWVKQRPGQGLEWIGMIDPSDSETHYNQMFRDKATLTVDKPSNTAYMQLSRLTSEDSAVYYCARALGYWGQGTSVTVSS
VL: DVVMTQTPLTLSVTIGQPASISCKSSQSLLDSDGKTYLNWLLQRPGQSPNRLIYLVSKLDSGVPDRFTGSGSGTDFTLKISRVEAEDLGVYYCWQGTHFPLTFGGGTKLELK
notes: Murine monoclonal from a hybridoma, made by an external service; The variable domains are tied to the name CARLY 1 in the definition section
With B1, the binding result is listed as “binds”.

B2: CARLY2 monoclonal murine antibody against CD79b (antibody, V domains shown)
VH: B1 VH with S31T, R65K, P75S, N77T, R85S, A99T, G101S, S108L, S113A
VL: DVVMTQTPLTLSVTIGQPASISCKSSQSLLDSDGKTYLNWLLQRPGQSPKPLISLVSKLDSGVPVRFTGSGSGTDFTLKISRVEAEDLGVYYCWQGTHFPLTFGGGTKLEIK
notes: Murine monoclonal from a hybridoma; it was detected with anti-mouse IgG-Alexa647 in confocal microscopy
Consider B2, for which the binding result is “binds”.

B3: CARLY3 monoclonal murine antibody against CD79b (antibody, V domains shown)
VH: QVQLQQPGAELVRPGASLKLSCKTSGYTFTDYWMNWVKQRPGQGLEWIGMIDPSDSETHYNQMFKDKATLTVDKSSSTAYMQLSSLTSEDSAVYYCTRNLNYWGQGTTLTVSS
VL: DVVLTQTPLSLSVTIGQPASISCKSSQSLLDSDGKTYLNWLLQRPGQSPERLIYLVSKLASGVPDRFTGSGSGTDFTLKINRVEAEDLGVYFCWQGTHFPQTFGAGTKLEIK
notes: as for B2
For the molecule B3, the binding result is “binds”.
